How the values were obtained:
[1] = molecular target: T1, gD tagged human FcRH4 on SVT2 cells (human, UniProt Q96PJ5 20-515); assay: FACS, SVT2.MSCV.gD.FcRH4 cells, PE mu anti-human IgG
T1 construct: whole, on cells; also called huFcRH4; IRTA1; not shown: gD tag; the construct for this FcRH is not described
T1 sequence (looked up): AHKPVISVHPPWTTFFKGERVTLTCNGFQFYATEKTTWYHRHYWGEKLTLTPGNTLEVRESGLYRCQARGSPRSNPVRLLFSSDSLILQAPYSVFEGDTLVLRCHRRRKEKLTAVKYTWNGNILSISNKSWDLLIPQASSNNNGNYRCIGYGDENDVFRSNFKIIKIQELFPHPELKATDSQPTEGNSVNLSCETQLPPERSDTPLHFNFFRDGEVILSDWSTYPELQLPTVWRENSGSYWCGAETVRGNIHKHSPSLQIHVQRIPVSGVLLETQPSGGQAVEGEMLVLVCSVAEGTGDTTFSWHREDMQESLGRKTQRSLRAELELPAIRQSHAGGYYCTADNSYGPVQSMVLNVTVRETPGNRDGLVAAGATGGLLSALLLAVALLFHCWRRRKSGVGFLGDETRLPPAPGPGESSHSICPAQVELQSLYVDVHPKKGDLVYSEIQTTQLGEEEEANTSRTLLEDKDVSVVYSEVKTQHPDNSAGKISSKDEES

[2] = molecular target: T2, gD tagged human FcRH2 on SVT2 cells (human, UniProt Q96LA5 20-508); assay: FACS, SVT2.MSCV.gD.FcRH2 cells, PE mu anti-human IgG
T2 construct: whole, on cells; also called huFcRH2; not shown: gD tag; the construct for this FcRH is not described
T2 sequence (looked up): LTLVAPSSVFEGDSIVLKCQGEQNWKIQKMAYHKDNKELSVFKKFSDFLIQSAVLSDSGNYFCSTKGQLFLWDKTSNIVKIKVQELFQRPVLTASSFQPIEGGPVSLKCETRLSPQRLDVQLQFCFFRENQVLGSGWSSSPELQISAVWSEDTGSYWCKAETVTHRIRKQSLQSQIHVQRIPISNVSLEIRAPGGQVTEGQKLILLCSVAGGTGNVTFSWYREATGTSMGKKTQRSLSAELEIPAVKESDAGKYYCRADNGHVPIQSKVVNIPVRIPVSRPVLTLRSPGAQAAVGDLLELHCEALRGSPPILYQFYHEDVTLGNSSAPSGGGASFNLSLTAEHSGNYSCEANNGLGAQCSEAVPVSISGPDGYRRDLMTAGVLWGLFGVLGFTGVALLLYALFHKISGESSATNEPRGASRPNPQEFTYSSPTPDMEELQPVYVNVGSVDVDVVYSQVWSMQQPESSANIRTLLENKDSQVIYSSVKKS

[3] = molecular target: T3, gD tagged human FcRH1 on SVT2 cells (human, UniProt Q96LA6 17-429); assay: FACS, SVT2.MSCV.gD.FcRH1 cells, PE mu anti-human IgG
T3 construct: whole, on cells; also called huFcRH1; not shown: gD tag
T3 sequence (looked up): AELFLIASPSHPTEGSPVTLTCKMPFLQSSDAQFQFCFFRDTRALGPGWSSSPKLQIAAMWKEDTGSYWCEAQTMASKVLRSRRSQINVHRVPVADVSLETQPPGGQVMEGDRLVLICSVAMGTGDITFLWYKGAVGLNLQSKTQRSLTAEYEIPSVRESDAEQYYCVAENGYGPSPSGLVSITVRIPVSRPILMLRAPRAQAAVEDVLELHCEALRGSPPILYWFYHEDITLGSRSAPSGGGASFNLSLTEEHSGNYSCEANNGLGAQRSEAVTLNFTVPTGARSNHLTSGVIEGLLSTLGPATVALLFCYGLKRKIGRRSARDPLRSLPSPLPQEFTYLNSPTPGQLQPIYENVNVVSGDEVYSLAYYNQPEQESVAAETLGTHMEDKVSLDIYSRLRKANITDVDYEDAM

[4] = molecular target: T4, gD tagged human FcRH6 on SVT2 cells (human, UniProt Q6DN72 20-434); assay: FACS, SVT2.MSCV.gD.FcRH6 cells, PE mu anti-human IgG
T4 construct: whole, on cells; also called huFcRH6; not shown: gD tag; the construct for this FcRH is not described
T4 sequence (looked up): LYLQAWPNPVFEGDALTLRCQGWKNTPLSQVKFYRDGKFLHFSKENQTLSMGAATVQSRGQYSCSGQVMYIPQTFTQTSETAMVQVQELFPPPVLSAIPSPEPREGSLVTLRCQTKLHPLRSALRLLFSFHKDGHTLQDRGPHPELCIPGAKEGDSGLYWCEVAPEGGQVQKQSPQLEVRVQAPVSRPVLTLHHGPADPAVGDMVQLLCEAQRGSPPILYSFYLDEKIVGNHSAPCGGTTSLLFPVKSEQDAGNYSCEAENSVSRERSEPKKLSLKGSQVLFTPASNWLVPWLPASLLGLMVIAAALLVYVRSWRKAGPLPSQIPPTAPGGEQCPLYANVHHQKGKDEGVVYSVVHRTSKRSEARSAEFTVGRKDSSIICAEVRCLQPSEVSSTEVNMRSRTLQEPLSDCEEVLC

[5] = molecular target: T5, gD tagged human FcRH3 on SVT2 cells (human, UniProt Q96P31 18-734); assay: FACS, SVT2.MSCV.gD.FcRH3 cells, PE mu anti-human IgG
T5 construct: whole, on cells; also called huFcRH3; not shown: gD tag; the construct for this FcRH is not described
T5 sequence (looked up): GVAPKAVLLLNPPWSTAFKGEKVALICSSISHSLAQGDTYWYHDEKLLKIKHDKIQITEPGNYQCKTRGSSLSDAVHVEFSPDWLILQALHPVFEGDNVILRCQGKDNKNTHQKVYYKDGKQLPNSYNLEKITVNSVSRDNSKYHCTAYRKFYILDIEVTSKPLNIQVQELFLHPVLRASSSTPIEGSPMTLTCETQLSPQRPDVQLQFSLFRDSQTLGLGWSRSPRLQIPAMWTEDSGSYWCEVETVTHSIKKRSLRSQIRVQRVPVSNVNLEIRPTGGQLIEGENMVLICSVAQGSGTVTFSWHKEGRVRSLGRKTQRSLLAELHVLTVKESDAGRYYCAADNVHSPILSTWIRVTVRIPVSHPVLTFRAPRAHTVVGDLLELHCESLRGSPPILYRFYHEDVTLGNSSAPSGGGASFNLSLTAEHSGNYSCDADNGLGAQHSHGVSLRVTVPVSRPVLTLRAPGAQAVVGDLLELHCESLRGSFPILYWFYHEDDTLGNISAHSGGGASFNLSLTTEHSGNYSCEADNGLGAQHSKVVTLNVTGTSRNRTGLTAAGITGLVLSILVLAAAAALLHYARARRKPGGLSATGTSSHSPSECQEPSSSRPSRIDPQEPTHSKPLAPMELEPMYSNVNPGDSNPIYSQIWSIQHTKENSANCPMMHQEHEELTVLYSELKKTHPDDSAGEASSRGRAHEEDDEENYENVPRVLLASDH

[6] = molecular target: T6, cynomolgus FcRH5 on stably transfected SVT2 cells (cynomologous monkey); assay: Scatchard analysis: 0.5 nM 125I-labeled antibody competed with the unlabeled antibody (50 to 0.02 nM) on SVT2.cyFcRH5 cells, 4 h at 4 C; St. Error 0.091
T6 construct: also called cyno FcRH5; cynoFcRH5
T6 chain: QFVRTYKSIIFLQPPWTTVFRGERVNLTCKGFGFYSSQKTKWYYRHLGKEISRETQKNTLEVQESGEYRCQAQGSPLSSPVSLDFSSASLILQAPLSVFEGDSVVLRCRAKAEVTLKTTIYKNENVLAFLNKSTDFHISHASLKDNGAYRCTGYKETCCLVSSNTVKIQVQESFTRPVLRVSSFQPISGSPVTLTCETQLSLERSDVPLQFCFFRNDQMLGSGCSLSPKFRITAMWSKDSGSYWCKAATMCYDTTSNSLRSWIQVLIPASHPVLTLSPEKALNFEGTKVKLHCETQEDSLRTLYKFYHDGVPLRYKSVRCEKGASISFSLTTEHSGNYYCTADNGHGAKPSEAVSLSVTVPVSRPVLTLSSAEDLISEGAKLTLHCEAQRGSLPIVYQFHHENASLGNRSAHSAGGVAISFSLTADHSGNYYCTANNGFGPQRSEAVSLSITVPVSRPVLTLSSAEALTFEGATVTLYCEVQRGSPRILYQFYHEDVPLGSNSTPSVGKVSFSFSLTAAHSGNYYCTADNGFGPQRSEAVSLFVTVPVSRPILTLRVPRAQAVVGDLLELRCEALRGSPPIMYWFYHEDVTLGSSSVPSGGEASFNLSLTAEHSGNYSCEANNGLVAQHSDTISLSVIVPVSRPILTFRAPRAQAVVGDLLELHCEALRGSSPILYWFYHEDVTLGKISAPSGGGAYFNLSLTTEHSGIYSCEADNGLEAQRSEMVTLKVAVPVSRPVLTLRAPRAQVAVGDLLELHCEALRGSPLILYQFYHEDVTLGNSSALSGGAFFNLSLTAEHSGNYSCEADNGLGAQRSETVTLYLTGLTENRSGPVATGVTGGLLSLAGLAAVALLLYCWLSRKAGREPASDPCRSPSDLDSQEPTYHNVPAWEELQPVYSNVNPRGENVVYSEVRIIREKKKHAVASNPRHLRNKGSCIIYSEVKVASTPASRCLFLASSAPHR
Protocol: To further determine binding of the FcRH5 murine antibodies and IgG clones, binding of iodinated IgG variants to OPM2 cells expressing human FcRH5 and SVT2 cells expressing cynomologous FcRH5, Scatchard analysis was performed (Table 9A).
For Scatchard analysis, 0.5 nM I¹²⁵ labeled murine or IgG clone anti-FcRH5 was competed against unlabeled murine or IgG clone anti-FcRH5, respectively, ranging from 50 to 0.02 nM (12 step 1:2 serial dilution) in the presence of a transfected OPM2 line stably expressing human-FcRH5 and a transfected SVT2 line stably expressing cynomologous-FcRH5. After a four hour incubation at 4° C., cells were washed and cell pellet counts were read by a gamma counter (1470 WIZARD Automatic Gamma Counter; Perkin Elmer, Walthem, Mass.). All points were done in triplicate and counted for 10 minutes. The average CPM was used for Kd calculation using the New Ligand (Genentech, South San Francisco, Calif.) program.

B1: chimeric anti-human FcRH5 antibody 7D11 (antibody, human IgG1, kappa)
heavy: not shown
light: DILLTQSPAILSVSPGERVSFSCRSSQSIGTNIHWYQQRTNGSPRLLIKFASESLSGIPSRFSGSGSGTDFTLSINSVESEDFADYYCQQSNSWPLTFGAGTKVEIKRTVAAPSVFIFPPSDEQLKSGTASVVCLLNNFYPREAKVQWKVDNALQSGNSQESVTEQDSKDSTYSLSSTLTLSKADYEKHKVYACEVTHQGLSSPVTKSFNRGEC
notes: Mouse/human chimeric IgG1 kappa expressed in 293 cells; also called ch7D11; Ch anti-FcRH5 (7D11)
binding result [1]: no binding (tested: 1.0 ug per about 10^6 cells (p-1120)) | binding result [2]: no binding (tested: 1.0 ug per about 10^6 cells (p-1120)) | binding result [3]: no binding (tested: 1.0 ug per about 10^6 cells (p-1120)) | binding result [4]: no binding (tested: 1.0 ug per about 10^6 cells (p-1120)) | binding result [5]: no binding (tested: 1.0 ug per about 10^6 cells (p-1120))

B2: chimeric anti-human FcRH5 antibody 13G9 (antibody, human IgG1, kappa)
heavy: not shown
light: DIVMTQSQKIMSTSVGDRVNVTCKASQNVGSNVAWYHQKPGQSPKALIYSASYRYSGVPDRFTGSGSGTDFTLTISNVQSEDLAEYFCQQYKTWTFGGGTKLEIKRTVAAPSVFIFPPSDEQLKSGTASVVCLLNNFYPREAKVQWKVDNALQSGNSQESVTEQDSKDSTYSLSSTLTLSKADYEKHKVYACEVTHQGLSSPVTKSFNRGEC
notes: Expressed in 293 cells; also called ch13G9; chMAFcRH5 (13G9)
Kd [6]: 1.08 nM
